In patent US6962972B2, “Derivatization of proteins” (Lipoxen Technologies Limited, priority 2000, dated 2005):

B1: native catalase: tetrameric haemprotein enzyme from Sigma, used as model protein, underivatised (protein, UniProt P00432 2-527, looked up)
Catalase: ADNRDPASDQMKHWKEQRAAQKPDVLTTGGGNPVGDKLNSLTVGPRGPLLVQDVVFTDEMAHFDRERIPERVVHAKGAGAFGYFEVTHDITRYSKAKVFEHIGKRTPIAVRFSTVAGESGSADTVRDPRGFAVKFYTEDGNWDLVGNNTPIFFIRDALLFPSFIHSQKRNPQTHLKDPDMVWDFWSLRPESLHQVSFLFSDRGIPDGHRHMNGYGSHTFKLVNANGEAVYCKFHYKTDQGIKNLSVEDAARLAHEDPDYGLRDLFNAIATGNYPSWTLYIQVMTFSEAEIFPFNPFDLTKVWPHGDYPLIPVGKLVLNRNPVNYFAEVEQLAFDPSNMPPGIEPSPDKMLQGRLFAYPDTHRHRLGPNYLQIPVNCPYRARVANYQRDGPMCMMDNQGGAPNYYPNSFSAPEHQPSALEHRTHFSGDVQRFNSANDDNVTQVRTFYLKVLNEEQRKRLCENIAGHLKDAQLFIQKKAVKNFSDVHPEYGSRIQALLDKYNEEKPKNAVHTYVQHGSHLSAREKANL
B2: derivatised catalase: catalase derivatised with activated colominic acid for 48 hours in the presence of SDS at 0.01, 0.02 or 0.029 % by weight (conjugate, UniProt P00432 2-527, looked up)
Catalase: B1 Catalase
modifications: colominic acid conjugate

Experiments:
[1] = Catalase determination (enzyme activity: time for hydrogen peroxide absorbance to drop from 0.450 to 0.400); type: biochemical; conditions: for Time for Δ Ab: absorbance drop 0.45 to 0.40
From the text: (§1) Catalase is a tetrameric haemprotein that catalyses the degradation of hydrogen peroxide to oxygen and water. The reaction can be used to determine enzyme activity. The reaction is a first order reaction, whereby the amount of peroxide substrate decomposed is directly proportional to the concentration of both substrate and enzyme. Provided the concentration of substrate is constant between experiments, any difference in decomposition rate will therefore be a function of enzyme activity present. In the present examples, the drop in absorbance hydrogen peroxide at […] from 0.450 to 0.400, corresponding to the decomposition of 3.45 μ moles of hydrogen peroxide in a cuvette having a reaction volume of 3 ml, is determined.
The derivatised catalase compounds were also tested against native catalase for their enzyme activity. The results for catalase alone in FIG. 3 show the effect of subjecting catalase to the reaction conditions but without the addition of activated colominic acid. […] The […] is greater when the polysialylation takes place in the presence of SDS.
The derivatised catalase products were assessed for their catalase activity using the general test described above. The times taken for the enzymes to reduce the absorbance from 0.45 to 0.40 are shown in table 1 as compared to native catalase.

[2] = Hanes Woolf plot at different concentrations of hydrogen peroxide (Km); type: biochemical; conditions: substrate hydrogen peroxide, read-out: Km (substrate concentration at which the reaction rate is half of its maximal value)
From the text: as §1
Native catalase, catalase derivitised using 1×10^−3M SDS, for a reaction period of 48 hours, and catalase derivatised using the same reaction time but in the absence of SDS, were compared at different concentrations of hydrogen peroxide to form Hanes Woolf plot.

| Molecule | Time for Δ Ab ([1]; Concentration SDS 0 %) [min] | enzyme activity (FIG. 3) ([1]; after the derivatisation reaction conditions, up to 48 hours at 35 to 40° C.) | Km [2] [mM] | Time for Δ Ab ([1]; SDS 0.01 % in derivatisation, 48 hours) [min] | Time for Δ Ab ([1]; SDS 0.02 % in derivatisation, 48 hours) [min] | Time for Δ Ab ([1]; SDS 0.029 % (1×10^−3M) in derivatisation, 48 hours) [min] |
| --- | --- | --- | --- | --- | --- | --- |
| B1 | 4 | catalase activity is lost under those conditions | 84 |  |  |  |
| B2 |  |  |  | 13 | 21 | 44 |
